Measurements as given in the supplement of paper PMC7877785.
± gives the uncertainty stated by the source.

Test: self-splicing fitness, log relative to wild type (ln ratio); higher = more splicing; Tetrahymena group I intron in knt gene, E. coli kanamycin selection, DiMSum; sequences stand for … in CUCUCU…GGAGGGAAAAGUUAUCAGGCAUGCACCUGGUAGCUAGUCUUUAAACCAAUAGAUUGCAUCGGUUUAAAAGGCAAGACCGUCAAAUUGCGGGAAAGGGGUCAACAGCCGUUCAGUACCAAGUCUCAGGGGAAACUUUGAGAUGGCCUUGCAAAGGGUAUGGUAAUAAGCUGACGGACAUGGUCCUAACCACGCAGCCAAGUCCUAAGUCAACAGAUCUUCUGUUGAUAUGGAUGCAGUUCACAGACUAAAUGUCGGUCGGGGAAGAUGUAUUCUUCUCAUAAGAUAUAGUCGGACCUCUCCUUAAUGGGAGCUAGCGGAUGAAGUGAUGCAACACUGGAGCCGCUGGGAACUAAUUUGUAUGCGAAAGUAUAUUGAUUAGUUUUGGAGUACUCGUGGUCG
In short: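 Fitness was computed with DiMSum as the error-weighted combination of replicate fold changes, kanamycin versus none, each normalised to wild type. The library randomised all eight intron nucleotides of the P1ex region, with the intron placed in the knt kanamycin-resistance gene on pET-22b(+) in E. coli BL21(DE3). Six replicate transformations were grown overnight at 37°C or 30°C on LB agar with or without 25 μg/mL kanamycin, plus 100 μg/mL carbenicillin, 50 μM IPTG and 0.2% rhamnose. Pooled colonies were amplicon-sequenced on an Illumina HiSeq 2500.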

Sequence	self-splicing fitness (ln) (30 °C)	self-splicing fitness (ln) (37 °C)
GUCAAGCAAUAUUACGUGAA	-1.01 ± 0.072	0.556 ± 0.083
CGCUAGCAAUAUUACGAUUA	-3.34 ± 0.35	-2.73 ± 0.31
AGAUAGCAAUAUUACGAGUA	-1.76 ± 0.3	-1.33 ± 0.2
CCGCAGCAAUAUUACGUGUC	-3.88 ± 0.2	-2.34 ± 0.14
AUUCAGCAAUAUUACGCCCG	-1.85 ± 0.34	
CCAAAGCAAUAUUACGAUGA	-2.55 ± 0.12	-1.34 ± 0.09
AGCGAGCAAUAUUACGAAAU	-2.79 ± 0.23	-2.39 ± 0.42
CAAAAGCAAUAUUACGUACC	-2.56 ± 0.15	-1.33 ± 0.15
UUGUAGCAAUAUUACGCUGU	-3.02 ± 0.35	-2.49 ± 0.27
CGAUAGCAAUAUUACGGUAA	-3.58 ± 0.31	-1.8 ± 0.27
UUCUAGCAAUAUUACGACGA	-0.439 ± 0.12	0.731 ± 0.14
CUGGAGCAAUAUUACGUUAC	-2.8 ± 0.23	-1.42 ± 0.41
CCUGAGCAAUAUUACGUACU	-2.04 ± 0.21	-2.3 ± 0.3
AUCAAGCAAUAUUACGUCCU	-0.37 ± 0.088	0.533 ± 0.12
UUGUAGCAAUAUUACGAGCU	-1.88 ± 0.22	-0.4 ± 0.2
GCCAAGCAAUAUUACGGCUC	-1.99 ± 0.071	-0.526 ± 0.091
AGAGAGCAAUAUUACGUUCA	-2.39 ± 0.22	-1.81 ± 0.22
AACCAGCAAUAUUACGCCUA	-0.252 ± 0.076	-0.557 ± 0.086
GAUUAGCAAUAUUACGAUUC	-2.58 ± 0.22	-1.45 ± 0.2
ACCUAGCAAUAUUACGUGCU	-2.56 ± 0.092	-1.31 ± 0.098
UAAGAGCAAUAUUACGCAUA	-1.8 ± 0.39	-1.59 ± 0.3
GCAAAGCAAUAUUACGUAGC	-4.47 ± 0.46	-1.71 ± 0.22
UACUAGCAAUAUUACGGCCU	-1.25 ± 0.095	-0.333 ± 0.11
GUGAAGCAAUAUUACGGUAC	-0.508 ± 0.12	-0.311 ± 0.15
GGAGAGCAAUAUUACGUGGC		-1.63 ± 0.25

Sequence	self-splicing fitness (ln) (30 °C)	self-splicing fitness (ln) (37 °C)
CCGGAGCAAUAUUACGAGAG	-2.13 ± 0.22	-2.33 ± 0.22
GAAGAGCAAUAUUACGGAUA	-2.15 ± 0.22	-2.85 ± 0.43
AACUAGCAAUAUUACGAGAU	-2.52 ± 0.13	-1.65 ± 0.14
GUGUAGCAAUAUUACGGUCG	-1.32 ± 0.16	-0.824 ± 0.25
AGUCAGCAAUAUUACGUGCA	-0.269 ± 0.073	-0.501 ± 0.099
CCCUAGCAAUAUUACGUAUG	-3.75 ± 0.2	-3.63 ± 0.3
UGUCAGCAAUAUUACGACUA	-0.425 ± 0.073	0.686 ± 0.11
AGACAGCAAUAUUACGGGAC	-2.87 ± 0.18	-2.54 ± 0.23
AUCUAGCAAUAUUACGUGAA	-2.52 ± 0.12	-0.861 ± 0.12
UCGGAGCAAUAUUACGACUU	-3.46 ± 0.22	-2.48 ± 0.19
UGCAAGCAAUAUUACGUUGG	-2.87 ± 0.12	-2.22 ± 0.14
CUCAAGCAAUAUUACGCCAU		-1.99 ± 0.37
CGGCAGCAAUAUUACGAAAA	-2.23 ± 0.26	-2.21 ± 0.37
UACAAGCAAUAUUACGGUAA	-2.12 ± 0.1	-1.15 ± 0.1
GACCAGCAAUAUUACGAAAU	-1.34 ± 0.093	-0.476 ± 0.098
ACUAAGCAAUAUUACGUUCC	-2.41 ± 0.23	-1.2 ± 0.29
UAUGAGCAAUAUUACGUGGU		-2.75 ± 0.31
GAAAAGCAAUAUUACGCUAU	-2.9 ± 0.21	-0.854 ± 0.2
UCUAAGCAAUAUUACGGGUU	-3.97 ± 0.17	-2.93 ± 0.19
GCUGAGCAAUAUUACGGGGA	-2.81 ± 0.3	-2.03 ± 0.32
AAUCAGCAAUAUUACGUAUG	-0.407 ± 0.079	0.138 ± 0.11
GGAAAGCAAUAUUACGUGUC	-3.94 ± 0.31	-1.91 ± 0.19
GAUAAGCAAUAUUACGGCAA	-0.963 ± 0.14	-0.998 ± 0.16
AUUCAGCAAUAUUACGAUGA	-0.652 ± 0.14	-0.36 ± 0.15
CUUCAGCAAUAUUACGUAGU	-4 ± 0.16	-2.5 ± 0.19

Sequence	self-splicing fitness (ln) (30 °C)	self-splicing fitness (ln) (37 °C)
UAGGAGCAAUAUUACGAAAG		-1.17 ± 0.23
CAAGAGCAAUAUUACGCAAU	-3.31 ± 0.44	-1.52 ± 0.22
UUCCAGCAAUAUUACGUAUU	-3.21 ± 0.18	-1.7 ± 0.19
CUGCAGCAAUAUUACGGCCU	-3.23 ± 0.17	-1.56 ± 0.15
ACUGAGCAAUAUUACGUAUU	-3.29 ± 0.12	-1.48 ± 0.097
UCCCAGCAAUAUUACGUGAU	-2.17 ± 0.076	-1.52 ± 0.12
UGGUAGCAAUAUUACGAUCG	0.32 ± 0.085	0.623 ± 0.11
ACAAAGCAAUAUUACGCGGG	-2.47 ± 0.09	-1.01 ± 0.09
CGCUAGCAAUAUUACGUUAG	-3.47 ± 0.18	-2.89 ± 0.24
GGAAAGCAAUAUUACGUACU	-1.25 ± 0.082	-0.834 ± 0.13
CAGAAGCAAUAUUACGGAAA		-2.45 ± 0.36
CUAUAGCAAUAUUACGUUUA	-3.4 ± 0.36	-1.74 ± 0.19
ACACAGCAAUAUUACGCGCC	-0.614 ± 0.11	-1.13 ± 0.1
AGAUAGCAAUAUUACGGACC	-0.504 ± 0.15	-0.242 ± 0.12
AACGAGCAAUAUUACGCGUC	-3.01 ± 0.22	-2.85 ± 0.38
GCUCAGCAAUAUUACGGGCU	-4.72 ± 0.38	-2.63 ± 0.21
UCGCAGCAAUAUUACGCGCC	-3.12 ± 0.17	-1.59 ± 0.13
GUCUAGCAAUAUUACGGACG	-0.561 ± 0.15	-0.711 ± 0.2
AUUAAGCAAUAUUACGCCGA	-1.23 ± 0.26	0.0906 ± 0.26
UCGGAGCAAUAUUACGGUCC	-2.33 ± 0.4	-1.73 ± 0.49
UCGGAGCAAUAUUACGCACA	-2.26 ± 0.46	-2.22 ± 0.43
UGAAAGCAAUAUUACGCCAG	-0.985 ± 0.12	-0.807 ± 0.12
CAAUAGCAAUAUUACGCUUU	-4.34 ± 0.27	-2.2 ± 0.19
CCCUAGCAAUAUUACGCGUU	-3.65 ± 0.19	-2.72 ± 0.17
UUCCAGCAAUAUUACGAAUA	-1.24 ± 0.15	-0.772 ± 0.16

Sequence	self-splicing fitness (ln) (30 °C)	self-splicing fitness (ln) (37 °C)
UCUGAGCAAUAUUACGUUUC	-2.44 ± 0.22	-0.767 ± 0.21
GACAAGCAAUAUUACGAACC	-1.06 ± 0.14	-0.514 ± 0.17
GGAGAGCAAUAUUACGAUCA	-1.04 ± 0.16	-1.73 ± 0.25
AUGGAGCAAUAUUACGUGAC	-1.88 ± 0.22	-2.11 ± 0.28
CACCAGCAAUAUUACGGGCA	-1.29 ± 0.069	-0.343 ± 0.081
GGGCAGCAAUAUUACGGGUG	-3.07 ± 0.14	-1.71 ± 0.19
AUCAAGCAAUAUUACGCAAC	-2.61 ± 0.14	-2.37 ± 0.22
AUGUAGCAAUAUUACGUAUU	-3.48 ± 0.21	-1.44 ± 0.16
UCGAAGCAAUAUUACGGCUU	-3.32 ± 0.27	-2.85 ± 0.22
GUCUAGCAAUAUUACGUCGU	-0.819 ± 0.096	0.377 ± 0.092
CGUAAGCAAUAUUACGAUGC		-2.04 ± 0.26
ACAGAGCAAUAUUACGCGAG	-2.31 ± 0.14	-2.43 ± 0.16
ACUGAGCAAUAUUACGUUCU	-1.77 ± 0.14	-1.48 ± 0.12
AGGAAGCAAUAUUACGUUUC	-3.65 ± 0.33	-1.86 ± 0.36
UUCAAGCAAUAUUACGUCUC	-3.33 ± 0.26	-1.74 ± 0.18
AGUAAGCAAUAUUACGUCAC	-3.26 ± 0.19	-2.11 ± 0.17
ACCAAGCAAUAUUACGACGA	-1.11 ± 0.12	-0.623 ± 0.13
GAGAAGCAAUAUUACGCCAU	-2.68 ± 0.38	-1.87 ± 0.35
GCAUAGCAAUAUUACGAGGG	-3.43 ± 0.23	-1.69 ± 0.17
CUAUAGCAAUAUUACGUGGU	-3.34 ± 0.23	-2.76 ± 0.2
UAAUAGCAAUAUUACGUCAG	-2.58 ± 0.25	-1.56 ± 0.2
AGCCAGCAAUAUUACGCAAU	-3.25 ± 0.2	-1.35 ± 0.17
